Laboratory results as given in IntAct's records for PubMed 23877428.

B1: Scaffold protein ILK (Homo sapiens), Q13418 (parent)
chain: MDDIFTQCREGNAVAVRLWLDNTENDLNQGDDHGFSPLHWACREGRSAVVEMLIMRGARINVMNRGDDTPLHLAASHGHRDIVQKLLQYKADINAVNEHGNVPLHYACFWGQDQVAEDLVANGALVSICNKYGEMPVDKAKAPLRELLRERAEKMGQNLNRIPYKDTFWKGTTRTRPRNGTLNKHSGIDFKQLNFLTKLNENHSGELWKGRWQGNDIVVKVLKVRDWSTRKSRDFNEECPRLRIFSHPNVLPVLGACQSPPAPHPTLITHWMPYGSLYNVLHEGTNFVVDQSQAVKFALDMARGMAFLHTLEPLIPRHALNSRSVMIDEDMTARISMADVKFSFQCPGRMYAPAWVAPEALQKKPEDTNRRSADMWSFAVLLWELVTREVPFADLSNMEIGMKVALEGLRPTIPPGISPHVCKLMKICMNEDPAKRPKFDMIVPILEKMQDK
partner: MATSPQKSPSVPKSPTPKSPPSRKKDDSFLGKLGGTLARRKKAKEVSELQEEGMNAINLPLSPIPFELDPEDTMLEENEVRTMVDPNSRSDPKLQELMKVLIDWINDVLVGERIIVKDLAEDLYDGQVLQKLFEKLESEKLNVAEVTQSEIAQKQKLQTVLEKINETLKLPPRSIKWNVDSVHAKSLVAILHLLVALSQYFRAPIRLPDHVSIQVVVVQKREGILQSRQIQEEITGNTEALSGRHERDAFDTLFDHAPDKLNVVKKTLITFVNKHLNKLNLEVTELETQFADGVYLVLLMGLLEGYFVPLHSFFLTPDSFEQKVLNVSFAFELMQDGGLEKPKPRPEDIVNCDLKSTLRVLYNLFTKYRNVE

Variants of: B1
Conditions: with parva_human PARVA

| effect of a mutation on the interaction | Variant |
| --- | --- |
| disrupting interaction | M402A;K403A |
